From patent publication US20250011363A1, “OPTIMIZED SHORTENED PEPTIDE THAT BINDS TO ACETYLCHOLINE RECEPTOR, AND USE THEREOF” (SKINMED CO., LTD., priority 2021, published 2025)

Target: acetylcholine receptor
Assay: SPR, AchR on CM5 chip, peptide 10 µM

Compared with RRKAER [6mer-1-1132], KKPNIK [6mer-1-1133] is lower in Binding affinity (RU): 31 RU for the first, 24 RU for the second.

First: KRMSWK [6mer-1-1134]
Second: KKHTER [6mer-1-1135]
The Binding affinity (RU) of the first is lower: 22 RU for the first, 26 RU for the second.

First: KKIEIK [6mer-1-1136]
Second: KRFTDK [6mer-1-1137]
The Binding affinity (RU) of the first is higher: 34 RU for the first, 33 RU for the second.

First: KRDCFR [6mer-1-1138]
Second: KKMENR [6mer-1-1139]
The Binding affinity (RU) of the first is lower: 21 RU for the first, 36 RU for the second.

Going from KRATMK [6mer-1-1140] to KRNMHK [6mer-1-1141], the Binding affinity (RU) falls from 43 RU to 40 RU.

Compared with KKETPR [6mer-1-1142], KRHEFK [6mer-1-1143] is higher in Binding affinity (RU): 24 RU for the first, 32 RU for the second.

Compared with KKCMGR [6mer-1-1144], RRDCKK [6mer-1-1145] is higher in Binding affinity (RU): 25 RU for the first, 40 RU for the second.

Going from KKMMPK [6mer-1-1146] to RKAPHR [6mer-1-1147], the Binding affinity (RU) rises from 34 RU to 35 RU.

First: RRCSHR [6mer-1-1148]
Second: RKMTPK [6mer-1-1149]
The Binding affinity (RU) of the first is higher: 31 RU for the first, 30 RU for the second.

KRKWWR [6mer-1-1150] and KKKEAK [6mer-1-1151] are the same in Binding affinity (RU): 34 RU for the first, 34 RU for the second.

RKYKEK [6mer-1-1152] and RKHNKK [6mer-1-1153] are the same in Binding affinity (RU): 23 RU for the first, 23 RU for the second.

Compared with RKCEKR [6mer-1-1154], RKKEKR [6mer-1-1155] is lower in Binding affinity (RU): 41 RU for the first, 28 RU for the second.

Going from KRYTVR [6mer-1-1156] to RKESVR [6mer-1-1157], the Binding affinity (RU) falls from 37 RU to 36 RU.

First: RKPMMK [6mer-1-1158]
Second: RRAWPR [6mer-1-1159]
The Binding affinity (RU) of the first is lower: 33 RU for the first, 39 RU for the second.

First: RRDWAK [6mer-1-1160]
Second: KRHWVK [6mer-1-1161]
The Binding affinity (RU) of the first is lower: 29 RU for the first, 40 RU for the second.

Compared with KKCDHR [6mer-1-1162], RKCAFK [6mer-1-1163] is lower in Binding affinity (RU): 41 RU for the first, 21 RU for the second.

Going from KKHHAK [6mer-1-1164] to RRATWR [6mer-1-1165], the Binding affinity (RU) falls from 41 RU to 29 RU.

Going from KKEEKR [6mer-1-1166] to KRHMMK [6mer-1-1167], the Binding affinity (RU) rises from 22 RU to 42 RU.

Compared with KKEKFR [6mer-1-1168], RKMDIR [6mer-1-1169] is lower in Binding affinity (RU): 40 RU for the first, 32 RU for the second.

Going from KKYNPK [6mer-1-1170] to RKIAFK [6mer-1-1171], the Binding affinity (RU) rises from 25 RU to 40 RU.

Going from RRFNFR [6mer-1-1172] to KKIPMK [6mer-1-1173], the Binding affinity (RU) rises from 23 RU to 26 RU.

Target: acetylcholine receptor
Assay: SPR, acetylcholine receptor on CM5 chip, peptide at 10 uM

Compared with KRSIRR [6mer-1-565], KKSFCR [6mer-1-566] is lower in Binding affinity (RU): 151 RU for the first, 148 RU for the second.

Going from KKRVSR [6mer-1-567] to KRWQQK [6mer-1-568], the Binding affinity (RU) rises from 136 RU to 147 RU.

First: RRVITK [6mer-1-569]
Second: RKRLRK [6mer-1-570]
The Binding affinity (RU) of the first is higher: 148 RU for the first, 122 RU for the second.

Compared with RKLLCK [6mer-1-571], KRVLLK [6mer-1-572] is lower in Binding affinity (RU): 154 RU for the first, 126 RU for the second.

Compared with KRVLLR [6mer-1-573], RKSYLR [6mer-1-574] is higher in Binding affinity (RU): 126 RU for the first, 148 RU for the second.

Compared with KRWVRR [6mer-1-575], RKRQRR [6mer-1-576] is higher in Binding affinity (RU): 148 RU for the first, 153 RU for the second.

First: KKQYQR [6mer-1-577]
Second: RKGQYK [6mer-1-578]
The Binding affinity (RU) of the first is lower: 128 RU for the first, 139 RU for the second.

First: KRSVRK [6mer-1-579]
Second: KKSLQK [6mer-1-580]
The Binding affinity (RU) of the first is higher: 148 RU for the first, 121 RU for the second.

Going from KRGLYK [6mer-1-581] to KRWFLK [6mer-1-582], the Binding affinity (RU) falls from 139 RU to 137 RU.

Compared with KKVLYK [6mer-1-583], RKQVSK [6mer-1-584] is lower in Binding affinity (RU): 139 RU for the first, 127 RU for the second.

Compared with RKSRQK [6mer-1-585], KRVICK [6mer-1-586] is lower in Binding affinity (RU): 144 RU for the first, 136 RU for the second.

Compared with KKQLLK [6mer-1-587], RRLVRK [6mer-1-588] is higher in Binding affinity (RU): 148 RU for the first, 153 RU for the second.

Compared with KKLQQK [6mer-1-589], RKGVTK [6mer-1-590] is higher in Binding affinity (RU): 139 RU for the first, 142 RU for the second.

Compared with KKRLYR [6mer-1-591], RRWLSK [6mer-1-592] is lower in Binding affinity (RU): 147 RU for the first, 135 RU for the second.

Compared with RKVYRK [6mer-1-593], KRQLQR [6mer-1-594] is lower in Binding affinity (RU): 148 RU for the first, 121 RU for the second.

Compared with KKSLCK [6mer-1-595], RKGVLR [6mer-1-596] is higher in Binding affinity (RU): 121 RU for the first, 148 RU for the second.

First: KRGFYK [6mer-1-597]
Second: RKWLSK [6mer-1-598]
The Binding affinity (RU) of the first is higher: 148 RU for the first, 142 RU for the second.

Going from KKLYQR [6mer-1-599] to KRGYCR [6mer-1-600], the Binding affinity (RU) rises from 124 RU to 139 RU.
